Data on 3 substances can be found in EP1852441B1, “Agents that modulate EPH receptor activity” (The Burnham Institute, priority 2002, dated 2004).

Sequence of EphA4 Fc (EphA4 receptor extracellular domain fused to a human Fc region) (Q03137 20-547): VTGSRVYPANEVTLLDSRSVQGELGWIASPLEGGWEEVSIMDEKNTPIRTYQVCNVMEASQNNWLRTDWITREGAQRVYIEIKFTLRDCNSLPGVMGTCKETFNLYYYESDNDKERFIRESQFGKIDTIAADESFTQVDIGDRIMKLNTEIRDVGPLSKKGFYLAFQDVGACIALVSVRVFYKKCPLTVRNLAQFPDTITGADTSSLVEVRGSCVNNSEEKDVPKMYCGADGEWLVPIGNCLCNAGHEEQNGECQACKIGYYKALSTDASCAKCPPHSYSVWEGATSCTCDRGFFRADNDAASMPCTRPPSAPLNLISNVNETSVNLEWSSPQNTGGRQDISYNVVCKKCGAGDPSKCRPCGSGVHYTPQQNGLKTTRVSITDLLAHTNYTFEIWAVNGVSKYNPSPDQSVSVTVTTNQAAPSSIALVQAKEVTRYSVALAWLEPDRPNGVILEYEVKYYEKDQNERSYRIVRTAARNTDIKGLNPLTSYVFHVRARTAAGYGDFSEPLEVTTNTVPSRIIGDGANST

This assay concerns the target EphA4 Fc (EphA4 receptor extracellular domain fused to a human Fc region). Put plainly: inhibition of ephrin-A5 AP binding to EphA4.
synthetic APY peptide (…) yielded a concentration that almost completely inhibits ephrin-A5 AP binding of 10 µM.

With synthetic KYL peptide (…), the concentration that almost completely inhibits ephrin-A5 AP binding turned out to be 1 µM. For synthetic VTM peptide (…) the value was 100 µM.
